Molecular target: purified 206 kDa rFn (recombinant fibronectin) (UniProt P02751)
Assay: SPR; Biacore T200, 25°C; rFn immobilised on CM5 chip at 8000 RU; rRlpA (0.016-0.500 μM) injected at 30 μl/min in 10 mM Hepes pH 7.4, 150 mM NaCl, 3 mM EDTA, 0.05% P20; 1:1 Langmuir model

purified 206 kDa rFn (recombinant fibronectin), sequence (P02751 32-2477): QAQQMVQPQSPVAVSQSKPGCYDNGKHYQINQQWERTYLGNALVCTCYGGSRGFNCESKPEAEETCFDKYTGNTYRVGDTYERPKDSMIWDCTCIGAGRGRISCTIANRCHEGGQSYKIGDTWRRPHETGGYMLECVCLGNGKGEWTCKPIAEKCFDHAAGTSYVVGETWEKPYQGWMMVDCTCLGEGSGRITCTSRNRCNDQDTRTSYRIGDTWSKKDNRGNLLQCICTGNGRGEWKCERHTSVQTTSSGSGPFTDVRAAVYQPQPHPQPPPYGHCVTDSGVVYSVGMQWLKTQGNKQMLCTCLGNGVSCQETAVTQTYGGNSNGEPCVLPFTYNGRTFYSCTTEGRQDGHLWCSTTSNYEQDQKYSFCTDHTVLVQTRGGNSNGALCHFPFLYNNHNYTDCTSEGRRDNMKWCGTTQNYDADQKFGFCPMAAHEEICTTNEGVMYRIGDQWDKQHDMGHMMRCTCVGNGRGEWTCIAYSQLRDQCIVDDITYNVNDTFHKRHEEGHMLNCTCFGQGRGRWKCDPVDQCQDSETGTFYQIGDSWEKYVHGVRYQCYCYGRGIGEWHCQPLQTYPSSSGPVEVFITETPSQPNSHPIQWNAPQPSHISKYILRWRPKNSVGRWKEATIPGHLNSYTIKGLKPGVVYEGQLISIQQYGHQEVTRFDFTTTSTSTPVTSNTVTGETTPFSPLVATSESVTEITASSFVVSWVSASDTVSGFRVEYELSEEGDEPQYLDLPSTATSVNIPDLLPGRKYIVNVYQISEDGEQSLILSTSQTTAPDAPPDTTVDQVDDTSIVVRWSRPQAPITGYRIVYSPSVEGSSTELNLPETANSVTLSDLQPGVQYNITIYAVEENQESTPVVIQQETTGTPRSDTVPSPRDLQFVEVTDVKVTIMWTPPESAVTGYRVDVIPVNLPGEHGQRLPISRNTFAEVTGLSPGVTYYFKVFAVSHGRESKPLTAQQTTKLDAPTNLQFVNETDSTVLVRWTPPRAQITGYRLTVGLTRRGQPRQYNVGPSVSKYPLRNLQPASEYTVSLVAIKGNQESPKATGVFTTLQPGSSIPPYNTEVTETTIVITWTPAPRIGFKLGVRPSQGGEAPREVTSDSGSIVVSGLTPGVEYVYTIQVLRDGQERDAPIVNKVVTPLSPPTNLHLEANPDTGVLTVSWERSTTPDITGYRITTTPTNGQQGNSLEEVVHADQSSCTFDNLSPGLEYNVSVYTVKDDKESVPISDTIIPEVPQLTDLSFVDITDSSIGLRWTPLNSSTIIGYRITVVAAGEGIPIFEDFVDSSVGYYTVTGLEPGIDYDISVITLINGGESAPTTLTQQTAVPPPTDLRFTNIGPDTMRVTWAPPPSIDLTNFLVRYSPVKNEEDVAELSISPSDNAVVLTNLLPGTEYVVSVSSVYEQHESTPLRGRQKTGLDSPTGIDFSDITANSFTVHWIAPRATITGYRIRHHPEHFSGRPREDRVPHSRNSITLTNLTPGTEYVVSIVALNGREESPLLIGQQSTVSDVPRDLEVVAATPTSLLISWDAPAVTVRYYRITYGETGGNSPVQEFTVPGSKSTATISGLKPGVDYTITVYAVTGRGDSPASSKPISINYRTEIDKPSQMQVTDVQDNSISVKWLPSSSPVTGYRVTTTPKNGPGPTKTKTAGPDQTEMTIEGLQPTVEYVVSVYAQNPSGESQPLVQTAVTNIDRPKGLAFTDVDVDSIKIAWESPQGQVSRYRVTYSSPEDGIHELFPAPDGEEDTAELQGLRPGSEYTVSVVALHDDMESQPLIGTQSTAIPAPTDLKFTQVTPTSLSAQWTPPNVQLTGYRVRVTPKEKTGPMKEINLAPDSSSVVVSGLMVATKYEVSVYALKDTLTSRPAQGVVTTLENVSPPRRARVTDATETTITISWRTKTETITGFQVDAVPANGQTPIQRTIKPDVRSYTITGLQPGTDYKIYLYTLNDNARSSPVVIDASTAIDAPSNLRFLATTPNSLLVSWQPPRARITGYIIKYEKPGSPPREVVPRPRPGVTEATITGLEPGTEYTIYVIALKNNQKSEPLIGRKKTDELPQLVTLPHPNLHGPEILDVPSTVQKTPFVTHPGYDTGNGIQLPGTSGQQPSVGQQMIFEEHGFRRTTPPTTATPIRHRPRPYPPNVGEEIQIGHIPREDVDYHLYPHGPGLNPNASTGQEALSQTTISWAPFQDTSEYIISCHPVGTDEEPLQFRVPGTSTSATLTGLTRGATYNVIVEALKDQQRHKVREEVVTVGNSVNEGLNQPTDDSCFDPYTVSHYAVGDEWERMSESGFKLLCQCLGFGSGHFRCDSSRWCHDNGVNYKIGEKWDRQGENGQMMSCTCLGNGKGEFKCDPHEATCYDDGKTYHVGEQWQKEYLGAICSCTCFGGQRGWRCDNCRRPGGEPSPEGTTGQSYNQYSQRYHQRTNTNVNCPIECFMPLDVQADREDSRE

GST-tagged RlpA recombinant protein (rare lipoprotein A of Glaesserella parasuis serotype 4) (natural protein; other documents disagree on this pair)
Kd: 1.6 nM

Reference: article PMC11392263
